Among the data in patent US20190032056, “STEM-LOOP COMPOSITIONS AND METHODS FOR INHIBITING FACTOR D” (Vitrisa Therapeutics, Inc., published 2019) are Kd and IC50 values, retold here.

For data set [1], the target named is T1, complement Factor D (fD) (Homo sapiens, UniProt P00746 SEQ:1-228). The experiment in a line: TR-FRET, 25 C. The note with it: tags: His-tagged recombinant, bead-immobilized via His capture beads (flow) or anti-His Eu (TR-FRET); hairpin. As to the method: (§1) The binding affinity of aptamers for fD was determined in solution using a homogenous time-resolved fluorescence resonance energy transfer (TR-FRET) assay (Table 21). In brief, 2.5 nM recombinant human Factor D with a hexahistidine tag (SEQ ID NO:324) (His), 2.5 nM anti-His Europium, and varied concentrations of Dylight® 650-labeled aptamer was added to half-well black 96-well plates in TR-FRET buffer (50 mM MOPS, pH 7.4, 125 mM NaCl, 5 mM KCl, 0.1 mg/mL BSA, 50 μM CHAPS, 1 mM CaCl₂ and 1 mM MgCl₂). After 1 hour incubation at 25° C., binding activity was assessed using a BioTek® Cytation™ 5 plate reader. Affinity binding constants were calculated as the concentration at which 50% of aptamer is bound using a single site binding model, with values ranging from 0.66 nM to 2.5 nM (Table 21).

In data set [2] the target is T2, complement Factor D (fD) in C1q-depleted human serum (Homo sapiens, UniProt P00746 SEQ:1-228). The experiment in a line: inhibition; hemolysis, sd 0.1. The note with it: protein: extract; tags: endogenous fD, about 9.6 nM in 10% serum; hairpin. The method, then: (§2) In V-bottom 96-well plates the following reagents were added to a final volume of 250 μL: appropriate volume of 1× Veronal buffer with 0.1% gelatin, 100 μL aptamer, 30 μL of C1q-depleted human serum and 20 μl RBCs. This mixture was incubated for 25 minutes at room temperature, then the reaction was stopped by the addition of 5 μL of 500 mM EDTA. The plate was centrifuged for 5 minutes at 500×g at room temperature, then 100 μL of supernatant was removed and the extent of RBC lysis was determined by measuring absorbance at 405 nm.
(§3) The potency of the PEG-aptamers P01, P04, P06, P07 and P08 compared to their non-pegylated counterparts was determined in the alternative complement-dependent hemolysis assay as described in Example 2.

Data set [3] addresses T1, complement Factor D (fD). The experiment in a line: SPR. The note with it: tags: amine-coupled to dextran chip for SPR; free in esterase assay; hairpin. The method, then: (§4) The binding affinity of aptamers for fD was determined by surface plasmon resonance (SPR) on a Reichert4 SPR System, where either aptamer or fD was immobilized as ligand on a solid surface and the interactant analyte was flowed in solution over the immobilized ligand (Table 20).

Data set [4] has as its target T2, complement Factor D (fD) in …. The experiment in a line: inhibition; hemolysis, sd 0.6. Conditions: protein: extract; tags: endogenous fD, about 9.6 nM in 10% serum; hairpin. The method, then: as §2, §3
Data set [5] shares this target. The experiment in a line: inhibition; hemolysis; Table 17 lists about 10 nM. Conditions: protein: extract; tags: endogenous fD, about 9.6 nM in 10% serum; hairpin. The method, then:
as §2

In data set [6] the target is T1, complement Factor D (fD). The experiment in a line: TR-FRET, 50 mM MOPS pH 7.4, 125 mM NaCl, 1 mM Ca and Mg, 25 C. The note with it: tags: His-tagged recombinant, bead-immobilized via His capture beads (flow) or anti-His Eu (TR-FRET); hairpin. As to the method:
as §1
In general terms: TR-FRET usually uses a lanthanide donor and a delayed reading to cut background.

Data set [7] concerns the target T1, complement Factor D (fD). The experiment in a line: SPR; fD immobilized. Conditions: tags: amine-coupled to dextran chip for SPR; free in esterase assay; hairpin. The method, then: as §4
On the technique in general: Surface plasmon resonance follows binding to a sensor surface in real time, without labels.

Data set [8] concerns the target T2, complement Factor D (fD) in …. The experiment in a line: inhibition; hemolysis, sd 1.4. The note with it: protein: extract; tags: endogenous fD, about 9.6 nM in 10% serum; hairpin. As to the method: as §2, §3
Data set [9] deals with T1, complement Factor D (fD). The experiment in a line: flow; bead-based direct binding. The note with it: tags: His-tagged recombinant, bead-immobilized via His capture beads (flow) or anti-His Eu (TR-FRET); hairpin.
The target of data set [10] is T2, complement Factor D (fD) in …. The experiment in a line: inhibition; hemolysis, sd 4.4. Conditions: protein: extract; tags: endogenous fD, about 9.6 nM in 10% serum; hairpin. As to the method: as §2, §3
Data set [11] deals with T1, complement Factor D (fD). The experiment in a line: flow; bead-based direct binding, 37 C. Conditions: tags: His-tagged recombinant, bead-immobilized via His capture beads (flow) or anti-His Eu (TR-FRET); hairpin.
Data set [12] has as its target T2, complement Factor D (fD) in …. The experiment in a line: inhibition; hemolysis, sd 0.5. The note with it: protein: extract; tags: endogenous fD, about 9.6 nM in 10% serum; hairpin. The method, then: as §2, §3
The target is the same in data set [13]. The experiment in a line: inhibition; hemolysis, sd 1.5. Conditions: protein: extract; tags: endogenous fD, about 9.6 nM in 10% serum; hairpin. The method, then:
as §2, §3

The target is the same in data set [14]. The experiment in a line: inhibition; hemolysis, sd 0.4. Conditions: protein: extract; tags: endogenous fD, about 9.6 nM in 10% serum; hairpin. The method, then:
as §2, §3

For data set [15] the target is unchanged. The experiment in a line: inhibition; hemolysis, sd 0.8. The note with it: protein: extract; tags: endogenous fD, about 9.6 nM in 10% serum; hairpin. As to the method: as §2, §3
For data set [16] the target is unchanged. The experiment in a line: inhibition; hemolysis, sd 0.9. The note with it: protein: extract; tags: endogenous fD, about 9.6 nM in 10% serum; hairpin. As to the method:
as §2, §3

Positions count from the first letter of the chain named.

T2 sequence (P00746 26-253): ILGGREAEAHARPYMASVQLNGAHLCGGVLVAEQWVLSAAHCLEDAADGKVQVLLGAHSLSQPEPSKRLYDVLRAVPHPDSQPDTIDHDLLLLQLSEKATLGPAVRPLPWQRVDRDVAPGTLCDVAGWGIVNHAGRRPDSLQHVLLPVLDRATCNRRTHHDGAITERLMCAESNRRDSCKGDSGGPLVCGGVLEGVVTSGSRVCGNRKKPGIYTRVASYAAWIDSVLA
T1 sequence (P00746 26-253): as above

B1: Aptamer 102 (ssRNA)
RNA: CGACUUGCCAGUAUUGGCGAUGGCUGGAAGUUUGUCG
modifications: 2'-F G except 2'-OMe G in stem 1; 2'-OMe A,C,U; 5' C6NH2; 3' idT
By Kd is commonly meant the concentration at which binding is half-saturated. As a reminder, the IC50 is the concentration that inhibits the measured activity by half. Read a high IC50 as weaker potency. Take B1: the figures for the Kd with complement Factor D (fD) [1] and with complement Factor D (fD) [3] were 1.6 nM and 2.5 nM, respectively. Also, the IC50 in [2] was determined as 6.3 nM.

B2: P07 (PEGylated Aptamer 102) (ssRNA)
RNA: B1 RNA
modifications: as Aptamer 102; 5' 40 kDa branched PEG via C6NH2; 3' idT
With B2, in data set [4], the IC50 worked out at 4.4 nM.

B3: Aptamer 53 (ssRNA)
RNA: B1 RNA
modifications: 2'-F G; 2'-OMe A,C,U; 5' C6NH2; 3' idT
As for B3, the IC50 in [5] was less than 10 nM.

B4: Aptamer 74 (ssRNA)
RNA: CCGCCUUGCCAGUAUUGGCUUAGGCUGGAAGUUUGGCGG
modifications: 2'-F G except 2'-OMe G at 3,35,36,38,39; 2'-OMe A,C,U; 5' C6NH2; 3' idT
For B4, the Kd in the data set with complement Factor D (fD) [6] is 2.5 nM; with complement Factor D (fD) [7], 3.7 nM; in the data set with complement Factor D (fD) [9] it was 2.7 nM. For the same molecule, 7 nM corresponded to half-maximal inhibition in data set [8] (IC50).

B5: Aptamer 15 (ssRNA)
RNA: B4 RNA
modifications: 2'-F G; 2'-OMe A,C,U; 5' C6NH2; 3' idT
Regarding B5, the concentration for half-maximal inhibition (IC50) in data set [10] is 9.4 nM. Further, the Kd in the data set with complement Factor D (fD) [11] was determined as 8.37 nM.

B6: P08 (PEGylated Aptamer 106) (ssRNA)
RNA: B4 RNA with C4A, G36U
modifications: as Aptamer 106; 5' 40 kDa branched PEG via C6NH2; 3' idT
In the case of B6, inhibition in data set [12] was half-maximal at 4.1 nM (IC50).

B7: P01 (PEGylated Aptamer 15) (ssRNA)
RNA: B4 RNA
modifications: 2'-F G; 2'-OMe A,C,U; 5' 40 kDa branched PEG via C6NH2; 3' idT
For B7, the IC50 in data set [13] was 6.1 nM.

B8: Aptamer 106 (ssRNA)
RNA: B4 RNA with C4A, G36U
modifications: 2'-F G except 2'-OMe G in stem 1; 2'-OMe A,C,U; 5' C6NH2; 3' idT
Regarding B8, the 50% inhibitory concentration (IC50) in data set [14] was 5.2 nM. For the same molecule, the results for the Kd with complement Factor D (fD) [1] and in the data set with complement Factor D (fD) [3] were 0.66 nM and 1.7 nM, respectively.

B9: P04 (PEGylated Aptamer 74) (ssRNA)
RNA: B4 RNA
modifications: as Aptamer 74 (2'-OMe G at 3,35,36,38,39; other G 2'-F; 2'-OMe A,C,U); 5' 40 kDa branched PEG via C6NH2; 3' idT
In turn, B9 gave an IC50 in data set [15] of 3.2 nM.

B10: Aptamer 76 (ssRNA)
RNA: CCGACUUGCCAGUAUUGGCGAUGGCUGGAAGUUUGUCGG
modifications: 2'-F G except 2'-OMe G in stem 1; 2'-OMe A,C,U; 5' C6NH2; 3' idT
Regarding B10, the Kd was 0.8 nM with complement Factor D (fD) [1] and 1.6 nM in the data set with complement Factor D (fD) [3]. Further, the IC50 in [15] stood at 4.2 nM.

B11: P06 (PEGylated Aptamer 76) (ssRNA)
RNA: B10 RNA
modifications: as Aptamer 76; 5' 40 kDa branched PEG via C6NH2; 3' idT
Consider B11, for which the 50% inhibitory concentration (IC50) in data set [16] was 4.1 nM.
